This assay addresses T1, 5T4 on NCI-H226 cells, NCI-H2030 cells and HCC827 cells (UniProt Q13641 32-420, limits assumed).
T1 construct: whole, on cells
T1 sequence (looked up): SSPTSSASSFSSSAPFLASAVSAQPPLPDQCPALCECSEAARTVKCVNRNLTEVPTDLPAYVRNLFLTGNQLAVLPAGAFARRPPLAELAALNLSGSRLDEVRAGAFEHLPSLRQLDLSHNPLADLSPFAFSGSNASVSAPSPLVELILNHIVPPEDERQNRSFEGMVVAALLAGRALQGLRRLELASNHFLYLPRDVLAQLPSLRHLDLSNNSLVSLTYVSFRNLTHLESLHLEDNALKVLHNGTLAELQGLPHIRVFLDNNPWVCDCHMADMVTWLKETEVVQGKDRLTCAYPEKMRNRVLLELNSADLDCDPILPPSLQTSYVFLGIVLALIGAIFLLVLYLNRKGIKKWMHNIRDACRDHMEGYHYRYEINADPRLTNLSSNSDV
Nature of the assay: flow cytometry on NCI-H226 cells, Alexa Fluor 647 anti-human IgG Fc secondary antibody, MFI. The procedure:
NCI-H226 cells, NCI-H2030 cells or HCC827 cells were plated in a 96-well plate at a density of 2×10⁵ cells/well. Serially diluted purified anti-5T4 antibody 32G1 or the positive control PF06263507 analog-SI (maximum concentration: 20 μg/mL, 2-fold dilutions, 12 gradients) were added to each well and were incubated at 4° C. for 30 minutes. Then, after one wash with PBS, the cells were incubated with the secondary antibody Alexa Fluor® 647 anti human IgG Fcγ (Jackson ImmunoResearch Laboratories, Inc., Cat #: 109-606-170) at 4° C. for 15 minutes before flow cytometry analysis.
The cells were collected, and the mean fluorescence intensity (MFI) was determined.
Background: In flow cytometry, cells or beads pass a laser one at a time.

The values that follow come from patent US20260241018A1 (BIOCYTOGEN PHARMACEUTICALS BEIJING, published 2026).

B1: PF06263507 analog-SI (antibody, V domains shown)
VH: EVQLVESGGGLVQPGGSLRLSCAASGYTFTNFGMNWVRQAPGKGLEWVAWINTNTGEPRYAEEFKGRFTISRDNAKNSLYLQMNSLRAEDTAVYYCARDWDGAYFFDYWGQGTLVTVSS
VL: DIQMTQSPSSLSASVGDRVTITCKASQSVSNDVAWYQQKPGKAPKLLIYFATNRYTGVPSRFSGSGYGTDFTLTISSLQPEDFATYYCQQDYSSPWTFGQGTKVEIK
notes: PF06263507 is a humanized IgG1 monoclonal antibody targeting 5T4; also called positive control PF06263507 analog-SI
Take B1: the binding result is on record as “binds”.
